In patent US20220332795A1 (ARO BIOTHERAPEUTICS, published 2022):

Columns and labels:
[1] = target: T1, recombinant biotinylated CD71 extracellular domain (Sino Biologics) with an N-terminal 6His tag (human, UniProt P02786 89-760, biotinylated (site not stated)); assay: primary solution ELISA screen, signal on hCD71 over HSA
T1 construct: extracellular domain; also called hCD71; huCD71 ECD

[2] = target: T1, recombinant biotinylated CD71 …; assay: primary solution ELISA screen

T1 sequence (P02786 other isoform, or with tags, fused parts or gaps): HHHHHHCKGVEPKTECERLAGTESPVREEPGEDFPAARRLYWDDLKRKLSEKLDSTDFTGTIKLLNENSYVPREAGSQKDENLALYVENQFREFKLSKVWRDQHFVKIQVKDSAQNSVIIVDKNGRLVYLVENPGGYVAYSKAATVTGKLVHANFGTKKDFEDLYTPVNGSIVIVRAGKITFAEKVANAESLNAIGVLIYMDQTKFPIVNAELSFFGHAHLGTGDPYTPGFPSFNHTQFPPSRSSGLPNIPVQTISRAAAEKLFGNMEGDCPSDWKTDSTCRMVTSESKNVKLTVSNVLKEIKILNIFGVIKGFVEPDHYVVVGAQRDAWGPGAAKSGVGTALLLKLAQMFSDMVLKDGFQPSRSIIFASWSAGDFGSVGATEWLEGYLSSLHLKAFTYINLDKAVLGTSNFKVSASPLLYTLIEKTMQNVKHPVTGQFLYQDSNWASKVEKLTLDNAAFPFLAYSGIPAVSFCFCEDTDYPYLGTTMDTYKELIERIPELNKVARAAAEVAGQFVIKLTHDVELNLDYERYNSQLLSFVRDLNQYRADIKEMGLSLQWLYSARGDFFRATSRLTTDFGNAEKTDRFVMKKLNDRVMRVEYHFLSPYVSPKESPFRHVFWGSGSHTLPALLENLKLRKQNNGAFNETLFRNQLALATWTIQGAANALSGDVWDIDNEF

B1: SEQ ID NO 75 (designed binder, not shown: small tags and cut ends)
chain: MLPAPKNLVVSRVTEDSARLSWTAPDAAFDSFTISYGEEALIGEAIYLRVPGSERSYDLTGLKPGTEYYVHIEGVKGGSWSQPLAAAFTT
notes: FN3 domain, hit of the apical domain panning
hCD71:HSA [1]: 143
RLU [2]: 530000 RLU

B2: SEQ ID NO 10 (designed binder, not shown: small tags and cut ends)
chain: MLPAPKNLVVSRVTEDSARLSWTAPDAAFDSFKIAYIETATRGEAIVLTVPGSERSYDLTGLKPGTEYVVPIPGVKGGNTSSPLSAIFTT
notes: as for B1
hCD71:HSA [1]: 27
RLU [2]: 788000 RLU

B3: SEQ ID NO 78 (designed binder, not shown: small tags and cut ends)
chain: MLPAPKNLVVSRVTEDSARLSWTAPDAAFDSFGIGYYEHKRFGEAIQLSVPGSERSYDLTGLKPGTEYEVDIEGVKGGVLSWPLFAEFTT
notes: as for B1
hCD71:HSA [1]: 29
RLU [2]: 271000 RLU

B4: SEQ ID NO 3 (designed binder, not shown: small tags and cut ends)
chain: MLPAPKNLVVSRVTEDSARLSWTAPDAAFDSFNIEYAETRWYGEAIVLTVPGSERSYDLTGLKPGTEYVVPIDGVKGGIASKPLSAIFTT
notes: as for B1
hCD71:HSA [1]: 69
RLU [2]: 687000 RLU

B5: SEQ ID NO 79 (designed binder, not shown: small tags and cut ends)
chain: MLPAPKNLVVSRVTEDSARLSWTAPDAAFDSFVIEYTERFWSGEAIVLTVPGSERSYDLTGLKPGTEYSVPIDGVKGGQCSTPLSAIFTT
notes: as for B1
hCD71:HSA [1]: 46
RLU [2]: 273000 RLU

B6: SEQ ID NO 80 (designed binder, not shown: small tags and cut ends)
chain: MLPAPKNLVVSRVTEDSARLSWTAPDAAFDSFWIDYEEEGVIGEAIYLHVPGSERSYDLTGLKPGTEYVVKIHGVKGGHPSHPLVAVFTT
notes: as for B1
hCD71:HSA [1]: 25
RLU [2]: 844000 RLU

B7: SEQ ID NO 87 (designed binder, not shown: small tags and cut ends)
chain: MLPAPKNLVVSRVTEDSARLSWTAPDAAFDSFAIEYTEFLYSGEAIVLTVPGSERSYDLTGLKPGTEYGVPINGVKGGFVSPPLSAIVTT
notes: as for B1
hCD71:HSA [1]: 77
RLU [2]: 282000 RLU

B8: SEQ ID NO 89 (designed binder, not shown: small tags and cut ends)
chain: MLPAPENLVVSRVTEDSARLSWTAPDAAFDSFWIEYYEGVIQGEAIVLTVPGSERSYDLTGLKPGTEYFVAIWGVKGGKWSVPLSAIFTT
notes: as for B1
hCD71:HSA [1]: 141
RLU [2]: 919000 RLU

B9: SEQ ID NO 90 (designed binder, not shown: small tags and cut ends)
chain: MLPAPKNLVVSRVTEDSARLSWQGVARAFDSFLITYREQIFAGEVIVLTVPGSERSYDLTGLKPGTEYPVWIQGVKGGSPSAEFTT
notes: as for B1
hCD71:HSA [1]: 46
RLU [2]: 564000 RLU

B10: SEQ ID NO 91 (designed binder, not shown: small tags and cut ends)
chain: MLPAPKNLVVSRVTEDSARLSWTAPDAAFDSFQIHYWETQGFGEAIVLTVPGSERSYDLTGLKPGTEYPVLIPGVKGGPSSLPLSAIFTT
notes: as for B1
hCD71:HSA [1]: 74
RLU [2]: 491000 RLU

B11: SEQ ID NO 93 (designed binder, not shown: small tags and cut ends)
chain: MLPAPKNLVVSRVTEDSARLSWTAPDAAFDSFAIEYYEPVPAGEAIYLDVPGSERSYDLTGLKPGTEYDVTIYGVKGGYYSHPLFASFTT
notes: as for B1
hCD71:HSA [1]: 91
RLU [2]: 430000 RLU

B12: SEQ ID NO 96 (designed binder, not shown: small tags and cut ends)
chain: MSLPAPKNLVVSRVTEDSARLSWTAPDAAFDSFPIAYLEVFYEGEAIVLTVPGSERSYDLTGLKPGTEYQVPIEGVKGGAMSLPLSAIFTT
notes: as for B1
hCD71:HSA [1]: 48
RLU [2]: 726000 RLU

B13: SEQ ID NO 97 (designed binder, not shown: small tags and cut ends)
chain: MLPAPKNLVVSRVTEDSARLSWTAPDAAFDSFHIWYEEETTIGEAIYLHVPGSERSYDLTGLKPGTEYEVHITGVKGGPYSRPLFANFTT
notes: as for B1
hCD71:HSA [1]: 147
RLU [2]: 957000 RLU

B14: SEQ ID NO 98 (designed binder, not shown: small tags and cut ends)
chain: MLPAPKNLVVSRVTEDSARLSWTAPDAAFDSFGIAYDEWPEFGEAIVLTVPGSERSYDLTGLKPDTEYIVEIYGVKGGWFSWPLSAIFTT
notes: as for B1
hCD71:HSA [1]: 117
RLU [2]: 1.31e+06 RLU
